The values that follow come from PMC2688836 (2010).

First the molecules themselves.
B1: NHERF1 PDZ2-CT E353A 150-358 (protein)
chain: LRPRLCTMKKGPSGYGFNLHSDKSKPGQFIRSVDPDSPAEASGLRAQDRIVEVNGVCMEGKQHGDVVSAIRAGGDETKLLVVDRETDEFFKKCRVIPSQEHLNGPLPVPFTNGEIQKENSREALAEAALESPRPALVRSASSDTSEELNSQDSPPKQDSTAPSSTSSSDPILDFNISLAMAKERAHQKRSSKRAPQMDWSKKNALFSNL
B2: NHERF1 PDZ2-CT L358D 150-358 (protein)
chain: LRPRLCTMKKGPSGYGFNLHSDKSKPGQFIRSVDPDSPAEASGLRAQDRIVEVNGVCMEGKQHGDVVSAIRAGGDETKLLVVDRETDEFFKKCRVIPSQEHLNGPLPVPFTNGEIQKENSREALAEAALESPRPALVRSASSDTSEELNSQDSPPKQDSTAPSSTSSSDPILDFNISLAMAKERAHQKRSSKRAPQMDWSKKNELFSND
B3: NHERF1 PDZ2-CT E353P 150-358 (protein)
chain: LRPRLCTMKKGPSGYGFNLHSDKSKPGQFIRSVDPDSPAEASGLRAQDRIVEVNGVCMEGKQHGDVVSAIRAGGDETKLLVVDRETDEFFKKCRVIPSQEHLNGPLPVPFTNGEIQKENSREALAEAALESPRPALVRSASSDTSEELNSQDSPPKQDSTAPSSTSSSDPILDFNISLAMAKERAHQKRSSKRAPQMDWSKKNPLFSNL
B4: NHERF1 PDZ2-CT 150-358 (protein)
chain: LRPRLCTMKKGPSGYGFNLHSDKSKPGQFIRSVDPDSPAEASGLRAQDRIVEVNGVCMEGKQHGDVVSAIRAGGDETKLLVVDRETDEFFKKCRVIPSQEHLNGPLPVPFTNGEIQKENSREALAEAALESPRPALVRSASSDTSEELNSQDSPPKQDSTAPSSTSSSDPILDFNISLAMAKERAHQKRSSKRAPQMDWSKKNELFSNL

Sequence of C-CFTR 1411-1480 (P13569 1411-1480): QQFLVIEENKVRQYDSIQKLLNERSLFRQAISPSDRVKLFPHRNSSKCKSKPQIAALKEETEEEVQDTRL

The assay addresses C-CFTR 1411-1480 (Homo sapiens, UniProt P13569). In words: SPR. (In general: Surface plasmon resonance follows binding to a sensor surface in real time, without labels.)
Consider B1, for which the dissociation constant (Kd) (in general, a measure of binding affinity in units of concentration) was determined as 2500 nM.
The same measure for B2: 1600 nM; for B3: 480 nM; for B4: 2000 nM.
